Results published in the supplement of paper PMC12764529.
± gives the half width of the 95% confidence interval.

Tests used:
[1] = folding stability dG unfold from trypsin proteolysis; higher = more stable
Outline: (§1)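 Unfolding free energy was derived, per protease or combined, against a sequence-predicted unfolded-state K50 and a shared folded-state K50, starting from K50 inferred by Bayesian fitting of sequencing counts. Digestion with trypsin and chymotrypsin was carried out on designed mini-proteins under 80 residues without cysteine in a PA-tagged cDNA display construct. Only designs with AlphaFold2 dimer inter-PAE above 15 were kept.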

[2] = folding stability dG unfold from chymotrypsin proteolysis; higher = more stable
Outline: as §1

[3] = folding stability dG unfold (combined trypsin and chymotrypsin); higher = more stable
Outline: as §1

Row | Sequence | folding stability dG unfold [1] [kcal/mol] | folding stability dG unfold [2] [kcal/mol] | folding stability dG unfold [3] [kcal/mol]
1 | SAGGSAGGSIEELAKKTNIIEVKVTEFPNPKFKKAFIVYKNPKENKYKKGIYIFYDKKDGKLESAGGSAGGS [r12_133_TrMRF] | -0.185 ± 0.35 | 0.544 ± 0.43 | 0.313 ± 0.23
2 | SKPIPVKITIETKTNPNGEPITTITIDKGDKTYSLPLGNAKILEIDPEKQYIIIYNPETGSILILKPSDLSA [r9_1186_TrMRF] | 2.54 ± 0.059 | 3.14 ± 0.06 | 2.95 ± 0.058
3 | SAGGSAGGMKYVVTVELPETGTTRTLTIPDNYTGEENVKKAVEEEAKKLGYSISKIEITKINDKSAGGSAGG [r6_718_JUSTAS] | 0.367 ± 0.086 | 0.654 ± 0.14 | 0.536 ± 0.12
4 | KKKYLVLLEARPRLYEFDENGKLIREIPLLVPFIGEGNDPEKVKEAAEKLFGEEVKILEVFPLEEVEEGKIS [r1_493_TrMRF] | 1.85 ± 0.065 | 2.692 ± 0.017 | 2.4 ± 0.072
5 | SAGGSALPPHAVRVLVVTATDTDPGAAAARIAEEFRRKYPNTRVLTRPFDVPPGRPAVVAVVYVDESAGGSA [r15_916_TrMRF] | 1.15 ± 0.12 | 2.54 ± 0.11 | 2.08 ± 0.2
6 | SAGGSAGGSADAVVVEVTLPGGGKARAVFFPDGSVVIVVDFPDGRRAVIFLENNEIVVLPVDSAGGSAGGSA [r18_285_TrMRF] | 3.73 ± 0.2 | 3.15 ± 0.19 | 3.63 ± 0.12
7 | SAGGSAGGSAGKPNIKKEANLEIFVTEDELEKALEIVKKLEEEGIEVKEAKIYVLKPEEGSAGGSAGGSAGG [r11_533_TrMRF] | -0.858 ± 0.23 | -0.299 ± 0.39 | -0.318 ± 0.21
8 | KTITIVVKVPSLEEVEALAAELAKELNLPPGAKVEVKVEYDEETGYVVVTVTVTNPNGEKIEIKIVVELPDS [r1_84_TrROS_Hall] | 1.86 ± 0.1 | 3.72 ± 0.38 | 3.08 ± 0.22
9 | SAGGMEEIEVEFEFTLPDGRTLRLTVRVRRFDGGIVVEVDVGGEEEEEREFMEEVAREIAERIAEEESAGGS [r8_416_TrMRF] | 2.92 ± 0.07 | 4.51 ± 0.11 | 4.12 ± 0.093
10 | SAGGTRTIWFPVDDIREALPPDNIKKVEVEPVGPENNWYKVTIEFPDYKIEIQYYPEEPGMFMVTITDSAGG [r13_942_TrROS] | 0.791 ± 0.085 | 2.71 ± 0.043 | 2.13 ± 0.29
11 | SGLTLTLPVAPDEELKLTLKLPNTDETVEVEAETVAETGDVFAVAVATPPNGDKKVVPAVIKVEPGEPDESA [r9_770_TrMRF] | 0.704 ± 0.038 | 0.332 ± 0.16 | 0.642 ± 0.12
12 | SAGGWQKVEFMIEIPGGGSLDQAKDEVEEFADYLRKKAGFKDVDVDVQVDPDGWVYVMVEIEVPPNASAGGS [r8_3_TrROS] | 1.06 ± 0.04 | 2.24 ± 0.042 | 1.87 ± 0.062
13 | SAGGSAGGMKITKIESVEPNPENGMVSLEMKIENGASILIHYNPDNGKVTIMVFKPNEIEPIELSAGGSAGG [r6_796_TrROS] | 1.26 ± 0.092 | 1.91 ± 0.072 | 1.76 ± 0.089
14 | SAGGEVKIEVVEKDGELYIVVTVRAPSVEELKKALEELGLEVEVVKIEEVKGEDGETYVVVVVKIKPSAGGS [r16_699_TrROS_Hall] | 2.41 ± 0.086 | 3.68 ± 0.065 | 3.24 ± 0.07
15 | SAGGSAEIEGLEFEIVEVTEVRVLPDGTVEITLRVRLPDGSYLRITITVSPDGTVTIDIELLPADESAGGSA [r15_559_TrROS_Hall] | 4.51 ± 0.21 | 4.18 ± 0.1 | 4.48 ± 0.18
16 | SAGGSASLQTSTASVSPGALEKAIEAAKAAPPGTAVSVSFGDPVVGTPRPVTLTVDSAGNLVEITGSAGGSA [r15_228_JUSTAS] | 0.376 ± 0.029 | 0.0446 ± 0.08 | 0.188 ± 0.097
17 | SAGGSAGGSMTAEEIAEKFPGLPPEQIKNIPIERHPDGYMTVNIEHRGPNGNKQEQQVEIPVDSAGGSAGGS [r12_1050_TrROS] | 0.509 ± 0.04 | 0.505 ± 0.037 | 0.483 ± 0.16
18 | SAGGSAGGSAGSSMTSTVTEVSTLSNGGTVVTTTTTSYYPSTGTTTTSTTTTTFTDGKAVSAGGSAGGSAGG [r11_337_JUSTAS] | 1.08 ± 0.057 | 0.932 ± 0.027 | 1.05 ± 0.03
19 | SAGGSAGGKIEEIAKKLNLEVESIEYDKETKKVTVTIKVNGKLYKIEIYVENGKIVKIKIEELPSAGGSAGG [r6_373_TrROS_Hall] | 3.3 ± 0.2 | 4.3 ± 0.25 | 4.01 ± 0.23
20 | SAGGSAGGMNPTVTPVEVDVGDKPLTVFLFGDGTALVLFPDGGLAGAPVGTPDDRPVNLAIIGPSAGGSAGG [r6_239_TrMRF] | 0.887 ± 0.037 | 0.955 ± 0.053 | 0.927 ± 0.073
21 | SAGGSAKMKITVEKNEDGELYVLIEVDSVEELEEALKKLPGIEKVEVEVFVDEETKRVYILVRVKPSAGGSA [r15_344_TrROS_Hall] | 2.36 ± 0.071 | 3.62 ± 0.045 | 3.26 ± 0.064

Row | Sequence | folding stability dG unfold [1] [kcal/mol] | folding stability dG unfold [2] [kcal/mol] | folding stability dG unfold [3] [kcal/mol]
22 | SAGGSAGGSAGGAIVTTTTTKAPVFAPDGTVVAEITTTTVTVILPETPPSLLPEVLERLASAGGSAGGSAGG [r7_450_JUSTAS] | 0.553 ± 0.06 | 0.801 ± 0.076 | 0.681 ± 0.16
23 | SAGGSAGGSAPNLEVEEQRNPDGGMEMEIIRLKNDGLTIFFMEMRPDDKTMTMLMLMPLDASAGGSAGGSAG [r3_126_TrROS] | 2.19 ± 0.19 | 2.32 ± 0.13 | 2.48 ± 0.19
24 | SAGGMKLTVEIEYDEETEEVTIRIRNEETGEEIEITLSKEEVEKLLEALEKNPEKSIEEALLEALKESAGGS [r8_484_TrROS_Hall] | 2.58 ± 0.23 | 2.33 ± 0.11 | 2.43 ± 0.25
25 | SAGGEELMKDHPNFIFITIEIRHPGGGKEKPKFMIMIPNNTPEELIDELRDFLPPGYKIKDVEIHYMDSAGG [r13_849_TrROS] | 2.41 ± 0.13 | 1.72 ± 0.096 | 2.14 ± 0.17
26 | SAGGSEPPKIKKIKDINVKHERHNDRPYWEVKIRIKLKNGNTAEIDIEMPGMPPEEAREQIKDILKSAGGSA [r2_26_TrROS] | 0.391 ± 0.15 | 0.872 ± 0.089 | 0.938 ± 0.36
27 | SAGGSSFTGTVTPVKVDPVNPDLVTVATTLTWPDGTTVPLTRTIPRSVYDSLPENISISVTLSPPSSAGGSA [r2_128_JUSTAS] | -0.0475 ± 0.15 | 1.33 ± 0.1 | 0.942 ± 0.1
28 | SAGGSAGGSAGSMTITITETKKLPNGKTVVTTTKVEVRVFPNGGAIERKTLEVVTEELLGSAGGSAGGSAGG [r17_129_JUSTAS] | 1.34 ± 0.041 | 1.79 ± 0.053 | 1.58 ± 0.098
29 | SAGMYLVKITVTNEDGEKKEITVLVEAETEEEAREAAEELARELAEKYPEKIVEVKVEVVKLPPEVEPSAGG [r19_335_TrROS_Hall] | 4.12 ± 0.19 | 4.77 ± 0.16 | 4.98 ± 0.66
30 | SAGGSAGGSGGMTPTSRDYVLPNGEKLAVEETFTFPDGSSVTKVLDPKTGTTTTLPASTIASASAGGSAGGS [r12_488_JUSTAS] | 0.451 ± 0.032 | 0.321 ± 0.13 | 0.394 ± 0.11
31 | SAGGSAGGEEIAKKLRDLAKKLGLDVEIKKIEVTKYPLPEGDENKEEKWVTTITITVNGKKITLSAGGSAGG [r6_686_TrROS_Hall] | 2.22 ± 0.053 | 2.53 ± 0.061 | 2.37 ± 0.081
32 | SAGGMIRIERDGDRLTIEIHLPEGEELTPEQLEELARALLEELGPDARVVRVERLEDGTVRIEVELPSAGGS [r8_103_TrROS_Hall] | 3.32 ± 0.14 | 2.35 ± 0.07 | 2.88 ± 0.13
33 | SAGGSAGGSAGMKTLKIASISTSTSPTNTTLTTVTITSEGVTTTVTFPPGTTLEEVLEQLSAGGSAGGSAGG [r11_1056_JUSTAS] | 0.53 ± 0.049 | 0.678 ± 0.11 | 0.685 ± 0.1
34 | SAGGSAGGSMVIRVTVKLPNGEEKVFEIEVSEEELKNMSIEELKKLAEELGLPEDVKIELVPPSAGGSAGGS [r12_742_TrROS_Hall] | 3.29 ± 0.12 | 3.29 ± 0.17 | 3.33 ± 0.19
35 | SAGGSAGGSAGGMMVNLKVTREKLPNGKYRVTFTLPNGEEVVVEVESEEEAEAAAKEIAASAGGSAGGSAGG [r11_955_JUSTAS] | 3.2 ± 0.053 | 4.23 ± 0.052 | 3.95 ± 0.084
36 | SAGGMEVTFPVSPDLSPEEVRARIEAEIRPIAEARGAVDVEVPIVEYRRLPPDSVEFRFKVTVRFPRSAGGS [r8_184_JUSTAS] | 1.94 ± 0.089 | 2.4 ± 0.052 | 2.33 ± 0.11
37 | SAGGSAGGMVIVFDKKNKTIYIYDKKTGKKIEIKVKSIEEAKEAIKKLFPNKKVEIVEVKIFKPSAGGSAGG [r6_286_TrROS_Hall] | 1.43 ± 0.065 | 1.9 ± 0.09 | 1.76 ± 0.2
38 | SAGGSAGGSSMTFEVVEIERPPGDEIRVLVKREDGREFAEITLPPGASPEEIERAVREAVEAESAGGSAGGS [r12_798_JUSTAS] | 0.707 ± 0.07 | 1.55 ± 0.057 | 1.26 ± 0.28
39 | SAGGSAGGSMKLPPELKGKKIRIRVRNKNGETVEAEATVLEDGTIEIKIEGLSEEEITEIEIESAGGSAGGS [r12_477_TrROS_Hall] | 2.36 ± 0.038 | 2.21 ± 0.035 | 2.3 ± 0.076
40 | SMVIEIPDGTPLEEIIKKVKEAKEKGEPMEVVVTVPNDESVIQALKEAGFEVEVEKDEVKNVTLYKVKLPSA [r9_759_JUSTAS] | 2.7 ± 0.15 | 2.53 ± 0.025 | 2.59 ± 0.076
41 | SAKILEIKPLPDGTVIIKIPVDAPEDVDPKEVKILVKSEEGVKEAEILEDGTIDIVVENVKDVKIEIFVESA [r9_722_TrMRF] | 0.305 ± 0.061 | 0.382 ± 0.074 | 0.359 ± 0.1
42 | SAGGSAGGSAGMGVPPDGATLRFTYPESPSSTRTFTSPEEAAAWIAANLPPEHSVSFSPASAGGSAGGSAGG [r11_983_JUSTAS] | 0.25 ± 0.1 | 0.863 ± 0.12 | 0.684 ± 0.084
